# Test results as given in paper PMC3604124, “Glyceraldehyde-3-Phosphate Dehydrogenase Interacts with Proapoptotic Kinase Mst1 to Promote Cardiomyocyte Apoptosis” (PLoS ONE, 2013).
# Target: T1, Myc-tagged Mst1 (UniProt Q13043 1-487)
# T1 sequence (looked up): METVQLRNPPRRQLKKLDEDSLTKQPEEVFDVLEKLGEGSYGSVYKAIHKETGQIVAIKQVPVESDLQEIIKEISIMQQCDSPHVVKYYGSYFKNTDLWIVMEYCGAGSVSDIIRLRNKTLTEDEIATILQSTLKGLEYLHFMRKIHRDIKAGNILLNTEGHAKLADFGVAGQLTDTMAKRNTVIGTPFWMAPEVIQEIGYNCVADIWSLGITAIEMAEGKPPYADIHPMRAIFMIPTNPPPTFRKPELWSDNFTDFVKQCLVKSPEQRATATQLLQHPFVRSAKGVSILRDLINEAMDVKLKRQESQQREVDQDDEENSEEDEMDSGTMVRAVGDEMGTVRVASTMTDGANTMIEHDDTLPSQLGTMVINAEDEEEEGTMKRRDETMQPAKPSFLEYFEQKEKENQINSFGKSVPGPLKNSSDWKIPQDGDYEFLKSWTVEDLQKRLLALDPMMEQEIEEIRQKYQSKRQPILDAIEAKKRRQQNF
# Assay: cell-based or functional assay
binder,measurement,value
FLAG-tagged GAPDH (enzyme) not shown,"in vitro kinase assay of Mst1 immunoprecipitated from HEK293T cells transfected with Myc-Mst1 with or without Flag-GAPDH: Mst1 autophosphorylation and MBP phosphorylation, increase with GAPDH",~2 fold
